Format: physicochemical
Procedure: In addition, the stability is higher. The reaction of ^90Y-DOTATOC or ^90Y-DOTAGA at 37° C. with the chelator DTPA results in ^90Y-DTPA.

Molecule `C[C@@H](O)[C@@H]1NC(=O)[C@H](CCCCN)NC(=O)[C@@H](Cc2c[nH]c3ccccc23)NC(=O)[C@H](Cc2ccc(O)cc2)NC(=O)[C@@H](NC(=O)[C@@H](Cc2ccccc2)NC(=O)CCC(C(=O)O)N2CCN(CC(=O)O)CCN(CC(=O)O)CCN(CC(=O)O)CC2)CSSC[C@@H](C(=O)N[C@H](CO)[C@@H](C)O)NC1=O` (single isomer, unassigned) [DOTAGA] has a half-life of 79 h.

— patent publication US20060233704A1, “Prochelator for the preparation of radiometal labeled molecules having improved biological properties” (priority 2000, published 2006)
